Assay results from US20240083991A1 (Pfizer, published 2024).
Substitutions are numbered along the chain they refer to. “And” between values parts separate entries of the source, which are not always exact repeats. Equal values may be shown once. Read-outs that look alike come from different tables or passages of the source.

Key:
cyno BMP9 (mature) [1] = biological target: T1, cyno BMP9 (mature) (cynomolgus monkey, UniProt G7PEU8 320-429); assay: cell-based or functional assay
T1 sequence: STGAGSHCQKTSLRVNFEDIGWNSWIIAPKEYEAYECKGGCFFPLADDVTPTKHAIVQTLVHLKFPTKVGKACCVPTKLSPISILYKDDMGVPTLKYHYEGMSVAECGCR

rat BMP9 (mature) [2] = biological target: T2, rat BMP9 (mature) (rat, UniProt M0RB87 320-430, Chemically biotinylated for capture on the SPR chip; sites not stated. Natural mature BMP9 is a disulfide-linked homodimer; one monomer chain is given.); assay: cell-based or functional assay
T2 sequence: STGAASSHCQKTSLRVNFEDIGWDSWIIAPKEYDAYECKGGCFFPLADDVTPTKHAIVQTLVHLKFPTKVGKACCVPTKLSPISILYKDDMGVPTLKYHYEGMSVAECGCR

human mature BMP9 [3] = biological target: T3, human mature BMP9 (human, UniProt Q9UK05 320-429); assay: cell-based or functional assay
T3 sequence: T1 sequence with T2A, N23D, I84V

human mature BMP9 [4] = biological target: T3, human mature BMP9; assay: cell-based or functional assay; remark: listed apart in the source
human mature BMP9 [5] = biological target: T3, human mature BMP9; assay: cell-based or functional assay; remark: listed apart in the source
human mature BMP9 [6] = biological target: T3, human mature BMP9; assay: cell-based or functional assay; remark: listed apart in the source
human mature BMP9 [7] = biological target: T3, human mature BMP9; assay: cell-based or functional assay; remark: listed apart in the source
human mature BMP9 [8] = biological target: T3, human mature BMP9; assay: cell-based or functional assay; remark: listed apart in the source
cyno BMP9 (mature) [9] = biological target: T1, cyno BMP9 (mature); assay: cell-based or functional assay; remark: listed apart in the source
cyno BMP9 (mature) [10] = biological target: T1, cyno BMP9 (mature); assay: cell-based or functional assay; remark: listed apart in the source
rat BMP9 (mature) [11] = biological target: T2, rat BMP9 (mature); assay: cell-based or functional assay; remark: listed apart in the source
rat BMP9 (mature) [12] = biological target: T2, rat BMP9 (mature); assay: cell-based or functional assay; remark: listed apart in the source
human mature BMP9 [13] = biological target: T3, human mature BMP9; assay: cell-based or functional assay; remark: listed apart in the source
cyno BMP9 (mature) [14] = biological target: T1, cyno BMP9 (mature); assay: cell-based or functional assay; remark: listed apart in the source
rat BMP9 (mature) [15] = biological target: T2, rat BMP9 (mature); assay: cell-based or functional assay; remark: listed apart in the source
human mature BMP9 [16] = biological target: T3, human mature BMP9; assay: method not stated (legend of the crystal structure figure)
human mature BMP9 [17] = biological target: T3, human mature BMP9; assay: competition ELISA: antibody mixed with 0.6 nM BMP9-biotin, binding to coated BMPRII (1 µg/ml) detected
Protocol: For competition ELISAs, each receptor protein was coated on a 384-well ELISA plate at its optimal coating concentration, 20 μl/well in PBS-CMF at 4° C. overnight. The next day, plates were washed 3 times with PBS+0.05% TWEEN™ 20 and blocked with PBS+1% BSA for 1 hr at RT with shaking. Anti-BMP9 Abs were serially diluted 3-fold in PBS+1% BSA, starting from 100 nM, then mixed with the same volume of the optimal concentration of biotinylated BMP9. The final concentration of biotinylated BMP9 corresponded to the EC₉₀ for each receptor, as determined in a preliminary experiment described above.
Serially diluted Abs were incubated with biotinylated BMP9 for at least 15 min at RT. Plates were washed as before, followed by addition of serially diluted Abs and the biotinylated BMP9 mixture. After incubating for 1 hr at RT, plates were washed 3 times with PBS+0.05% TWEEN™ 20. Secondary antibody was added (HRP-Streptavidin from BioLegend, cat #405210, 1:2000), followed by 1 hr incubation at RT. Plates were washed as before, signal was developed using TMB substrate, and the reaction stopped with 0.18 M H₂SO₄. Absorbance was read at 450 nm on an ENVISION® plate reader (Perkin Elmer).

B1: Ab1076 (antibody, human IgG1, lambda, V domains shown)
VH: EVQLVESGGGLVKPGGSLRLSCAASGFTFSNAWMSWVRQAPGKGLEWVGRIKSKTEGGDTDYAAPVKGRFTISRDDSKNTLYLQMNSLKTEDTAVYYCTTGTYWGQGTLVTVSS
VL: QSVLTQPPSASGTPGQRVTISCSVTNTDIDIFNVHWYQQLPGTAPKLLFFHDYRPSGVSDRFSGSKSGTSASLAIVGLQSEDEGYYYCAGLDEAMRGPVFGGGTKLTVLG
notes: The heavy chain can be prepared with or without the C-terminal lysine
IC50, inhibition of BMP9-induced phospho-SMAD2 nuclear translocation in endothelial cells (cyno BMP9 (mature) [1]): 0.027 to 0.042 nM | IC50, inhibition of BMP9-induced phospho-SMAD2 nuclear translocation in endothelial cells (rat BMP9 (mature) [2]): 0.465 nM and 1 nM | IC50 (read off the curve): BMP9-induced pSMAD1/5/9 nuclear translocation, TIME cells (human mature BMP9 [3]): ~0.03 nM | IC50 (read off the curve): BMP9-induced pSMAD2 nuclear translocation, TIME cells (human mature BMP9 [4]): ~0.04 nM | IC50 (read off the curve): BMP9-induced pSMAD1/5/9 nuclear translocation, TIME cells (human mature BMP9 [5]): ~0.03 nM | IC50 (read off the curve): BMP9-induced pSMAD2 nuclear translocation, TIME cells (human mature BMP9 [6]): ~0.04 nM | IC50 (read off the curve): BMP9-induced pSMAD1/5/9 nuclear translocation, HPAEC (human mature BMP9 [7]): ~0.04 nM | IC50 (read off the curve): BMP9-induced pSMAD2 nuclear translocation, HPAEC (human mature BMP9 [8]): ~0.03 nM | IC50 (read off the curve): BMP9-induced pSMAD1/5/9 nuclear translocation, cynomolgus monkey PAEC (cyno BMP9 (mature) [9]): ~0.02 nM | IC50 (read off the curve): BMP9-induced pSMAD2 nuclear translocation, cynomolgus monkey PAEC (cyno BMP9 (mature) [10]): 0.016 to 0.03 nM | IC50 (read off the curve): BMP9-induced pSMAD1/5/9 nuclear translocation, rat LSEC (rat BMP9 (mature) [11]): ~0.3 nM | IC50 (read off the curve): BMP9-induced pSMAD2 nuclear translocation, rat LSEC (rat BMP9 (mature) [12]): ~0.5 nM | IC50 (read off the curve): Human BMP9-induced pSMAD1/5/9 nuclear translocation, TIME cells (human mature BMP9 [13]): ~0.1 nM | IC50 (read off the curve): Cyno BMP9-induced pSMAD1/5/9 nuclear translocation, TIME cells (cyno BMP9 (mature) [14]): ~0.1 nM | IC50 (read off the curve): Rat BMP9-induced pSMAD1/5/9 nuclear translocation, TIME cells (rat BMP9 (mature) [15]): ~0.1 nM | fold increase in binding affinity relative to Ab93 (human mature BMP9 [16]): ~20 fold | IC50 (read off the curve) (human mature BMP9 [17]): ~0.3 nM
